Test system: transgenic rice seedlings
Assay: Glyphosate resistance of EPSPS mutants in transgenic rice sprayed with glyphosate (Example 8)
Type: in vivo, rice (Nipponbare)
From the text: The glyphosate resistance of the EPSPS mutants of the above examples in transgenic rice was detected by the following method.
Plasmids of monoclonal resistant strain comprising pADV5-EPSPS of Examples 1-4 (containing the EPSPS mutant genes) were extracted in accordance with a conventional method. They were subjected to double enzymatic digestion with Pacl and BstEII to recover small fragments, and then the small fragments were ligated, using T4 DNA ligase, to a pGVP1 vector subjected to double enzymatic digestion in the same manner, to obtain a pGVP1-EPSPS vector having a structure as shown in FIG. 8.
The pGVP1-EPSPS vector was transformed into EHA105 (Agrobacterium tumefaciens) competent cells, and single clones were picked out for colony PCR detection to obtain positive strains. Then, the positive strains were inoculated into and propagated in 1 mL of a YEP medium containing 50 μg·mL^−1 kanamycin and 50 μg·mL^−1 rifampicin, and stored at −80° C. or used in subsequent experiments.
400 ul of a strain containing the target gene vector stored at −80° C. was added to a culture dish with a solid medium containing YEP+50 μg/mL rifampicin+50 μg/mL kanamycin and cultured in the dark at 28° C. for 24 hours, and then the bacterium was added to an infection medium and adjusted to OD=0.2 as an infection solution.
Disinfection and Pre-culture: seeds of mature rice (Nipponbare) were manually dehulled. Full seeds with no bacterial plaques were selected and disinfected in accordance with the following steps: the seeds were placed in a 50 ml sterile centrifuge tube and disinfected with the added 70% ethanol in water for 30 seconds, ethanol solution was poured out, and the seeds were washed once with sterile water; 10 to 20 ml of 2.6% sodium hypochlorite solution was added to soak and disinfect the seeds for 20 minutes. The sodium hypochlorite solution was poured out, and the seeds were soaked and washed with sterile water for 6 or 7 times, for 3 minutes each time.
Induction and Subculture: the seeds were placed on and blotted with sterile filter paper, and the mature embryos were placed in an induction medium, with 12 embryos per dish. After the operation was completed, the culture dishes were sealed with parafilm and underwent culturing in the dark at 30° C. for 21 to 28 days. Callus tissue was transferred to a fresh medium and continued to be cultured for about 7 to 14 days. Spherical callus tissue with a dimension of 1 to 2 mm was taken as an infection receptor.
The callus tissue was placed into a centrifuge tube or culture cup, infected in the prepared Agrobacterium suspension added thereto for 10 minutes, and shaken several times during the period; the bacterial solution was poured out, the callus tissue was taken out and placed on sterile filter paper for absorbing the bacterial solution from its surface (for about 30 minutes); the callus tissue was placed on sterile filter paper in culture dishes and cultured in the dark at 25° C. for 2 or 3 days.
Recovery Culture: the co-cultured callus tissue was inoculated on a recovery medium and cultured in the dark at 30° C. for 5 to 7 days.
Primary Screening: the callus was transferred to screening medium 1 (51) and cultured in the dark at 30° C. for 14 days.
Secondary Screening: the callus was then transferred to screening medium 2 (S2) and cultured in the dark at 30° C. for 14 days.
Primary Differentiation: the screened resistant callus tissue was transferred to a differentiation medium and cultured for about 21 days at 30° C. under exposure to light for 19 hours.
Secondary Differentiation: new young shoots were selected and moved to a fresh differentiation medium and continued to be cultured for about 21 days.
When the new seedlings grew to about 2 cm, they were moved to a rooting medium and cultured for 3 to 4 weeks at 30° C. under exposure to light (for 16/8 h). […]

[1] = 1X dose glyphosate (1,060 g/ha), day 10 after spraying
[2] = 2X dose glyphosate (2,120 g/ha) on survivors of 1X, after another 10 days
[3] = 5X dose glyphosate (5,300 g/ha) on survivors of 2X, after additional 10 days
[4] = 20X dose glyphosate (21,200 g/ha) on survivors of 5X, after further 10 days

Row | Molecule | % ++&+++ (percentage of moderately and highly glyphosate resistant plants in total plants observed) [1] [%] | plant number with resistance + (low glyphosate resistant) [1] | plant number with resistance ++ (moderately glyphosate resistant) [1] | plant number with resistance +++ (highly glyphosate resistant) [1] | % ++&+++ (percentage of moderately and highly glyphosate resistant plants in total plants observed) [2] [%] | plant number with resistance + (low glyphosate resistant) [2] | plant number with resistance ++ (moderately glyphosate resistant) [2] | plant number with resistance +++ (highly glyphosate resistant) [2] | plant number with resistance − (non-glyphosate resistant, withered or dead) [2] | % ++&+++ (percentage of moderately and highly glyphosate resistant plants in total plants observed) [3] [%] | plant number with resistance + (low glyphosate resistant) [3] | plant number with resistance ++ (moderately glyphosate resistant) [3] | plant number with resistance +++ (highly glyphosate resistant) [3] | plant number with resistance − (non-glyphosate resistant, withered or dead) [3] | % ++&+++ (percentage of moderately and highly glyphosate resistant plants in total plants observed) [4] [%] | plant number with resistance + (low glyphosate resistant) [4] | plant number with resistance ++ (moderately glyphosate resistant) [4] | plant number with resistance +++ (highly glyphosate resistant) [4] | plant number with resistance − (non-glyphosate resistant, withered or dead) [4] | level of glyphosate resistance of transformed rice seedlings compared with the mutant lacking the A138T mutation (R4 for R5, T1 for T2) (in words) (each of 1×, 2×, 5×, and 20× glyphosate doses)
1 | T1: Triticum aestivum EPSPS mutant containing G113(96)A and P118(101)S (SEQ ID NO: 4), gene SEQ ID NO: 21; Control Group 2 of Example 7 (protein, Triticum aestivum EPSPS mutant with mutations G113(96)A and P118(101)S) MATSVAAPAAPAGAEEVVLQPIREISGAVQLPGSKSLSNRILLLSALSEGTTVVDNLLNSEDVHYMLEALEALGLSVEADKVAKRAVVVGCGGRFPVEKDAKEEVKLFLGNAATAMRSLTAAVVAAGGNATYVLDGVPRMRERPIGDLVVGLQQLGADVDCFLGTNCPPVRINGKGGLPGGKVKLSGSISSQYLSSLLMAAPLALEDVEIEIIDKLISVPYVEMTLKLMEHFGVTAEHSDSWDRFYIKGGQKYKSPGNAYVEGDASSASYFLAGAAITGGTVTVEGCGTTSLQGDVKFAEVLEMMGAKVTWTDTSVTVTGPPRQPFGRKHLKAVDVNMNKMPDVAMTLAVVALFADGPTAIRDVASWRVKETERMVAIRTELTKLGATVEEGPDYCIITPPEKLNITAIDTYDDHRMAMAFSLAACAEVPVTIRDPGCTRKTFPNYFDVLSTFVKN | 70.0 | 1 | 7 | 14 | 36.7 | 4 | 1 | 10 | 15 | 36.7 | 4 | 7 | 4 | 15 | 13.3 | 7 | 4 | 0 | 19 | –
2 | R5: Oryza sativa EPSPS mutant containing G111(96)A, P116(101)S, and A155(138)T (SEQ ID NO: 9), encoding gene SEQ ID NO: 19 (protein, Oryza sativa EPSPS mutant with mutations G111(96)A, P116(101)S, and A155(138)T) MASNAAAAAAKAEEIVLQPIREISGAVQLPGSKSLSNRILLLSALSEGTTVVDNLLNSEDVHYMLEALKALGLSVEADKVAKRAVVVGCGGKFPVEKDAKEEVQLFLGNAATAMRSLTAAVTAAGGNATYVLDGVPRMRERPIGDLVVGLKQLGTDVDCFLGTECPPVRVKGIGGLPGGKVKLSGSISSQYLSALLMAAPLALGDVEIEIIDKLISIPYVEMTLRLMERFGVKAEHSDSWDRFYIKGGQKYKSPGNAYVEGDASSASYFLAGAAITGGTVTVQGCGTTSLQGDVKFAEVLEMMGAKVTWTDTSVTVTGPPREPYGKKHLKAVDVNMNKMPDVAMTLAVVALFADGPTAIRDVASWRVKETERMVAIRTELTKLGASVEEGPDYCIITPPEKLNITAIDTYDDHRMAMAFSLAACADVPVTIRDPGCTRKTFPNYFDVLSTFVRN | 92.0 | 0 | 0 | 23 | 84.0 | 0 | 1 | 20 | 4 | 76.0 | 2 | 2 | 17 | 4 | – | 1 | 6 | 13 | 5 | higher levels of glyphosate resistance
3 | R4: Oryza sativa EPSPS mutant containing G111(96)A and P116(101)S (SEQ ID NO: 8), encoding gene SEQ ID NO: 18 (protein, Oryza sativa EPSPS mutant with mutations G111(96)A and P116(101)S) MASNAAAAAAKAEEIVLQPIREISGAVQLPGSKSLSNRILLLSALSEGTTVVDNLLNSEDVHYMLEALKALGLSVEADKVAKRAVVVGCGGKFPVEKDAKEEVQLFLGNAATAMRSLTAAVTAAGGNATYVLDGVPRMRERPIGDLVVGLKQLGADVDCFLGTECPPVRVKGIGGLPGGKVKLSGSISSQYLSALLMAAPLALGDVEIEIIDKLISIPYVEMTLRLMERFGVKAEHSDSWDRFYIKGGQKYKSPGNAYVEGDASSASYFLAGAAITGGTVTVQGCGTTSLQGDVKFAEVLEMMGAKVTWTDTSVTVTGPPREPYGKKHLKAVDVNMNKMPDVAMTLAVVALFADGPTAIRDVASWRVKETERMVAIRTELTKLGASVEEGPDYCIITPPEKLNITAIDTYDDHRMAMAFSLAACADVPVTIRDPGCTRKTFPNYFDVLSTFVRN | 88.5 | 0 | 0 | 23 | 80.8 | 2 | 1 | 20 | 3 | 69.2 | 3 | 1 | 17 | 5 | 50.0 | 3 | 10 | 3 | 10 | –
